Data reported in PMC4355161.
Read-outs that look alike come from different tables or passages of the source.

Experiments:
[1] = target: 0/20 Cy3 DNA(−25) nucleosomes; assay: FRET or BRET
[2] = target: 0/20 H2A T11C-Cy3 nucleosomes (UniProt P06897); assay: FRET or BRET
[3] = target: 0/20 Cy3 DNA(+20) nucleosomes; assay: FRET or BRET
[4] = target: 0/20 Cy3 DNA(−25) nucleosomes; assay: FRET or BRET; remark: listed apart in the source
[5] = target: 0/20 H2A T11C-Cy3 nucleosomes (UniProt P06897); assay: FRET or BRET; remark: listed apart in the source
[6] = target: 0/20 Cy3 DNA(+20) nucleosomes; assay: FRET or BRET; remark: listed apart in the source
[7] = target: 30/30 nucleosomes labeled with Cy3 on H4 A15C (UniProt P62799); assay: other fluorescence titration

Substance	FRET ratio [1]	FRET ratio [2]	FRET ratio [3]	FRET ratio [4]	FRET ratio [5]	FRET ratio [6]	fold preference over core nucleosomes [7]	fold tighter binding than to core nucleosomes [7]
SNF2h A930C-Cy5 (from UniProt O60264 1-729; O60264 730-1052) (enzyme)	0.49	0.56	0.34	0.4	0.39	0.51	–	–
wild type SNF2h (from UniProt O60264 1-1052) (enzyme)	–	–	–	–	–	–	4.9 fold	2.1 fold
